# According to patent US20130011378A1, “Stable formulations of a hyaluronan-degrading enzyme” (priority 2011, published 2013):
# Assay: RP-HPLC: insulin apparent solubility / percent recovery
# Details: for Solubility of Lispro, % remaining of the original concentration: 7 days at 2-8° C.
# How it was run: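 Vial samples withdrawn at each time point, centrifuged, held at 4 °C, run in duplicate by RP-HPLC. Apparent solubility = combined insulin main and desamido peak areas as percent versus standards/initial formulation; purity = main insulin peak as percent of all insulin species.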
substance,measurement,setting,value
"insulin Lispro: insulin analog LysB28, ProB29; SEQ ID NO:103 and 148","Solubility of Lispro, % remaining of the original concentration","0.2% methylparaben + […] m-cresol, pH 6.6, NaCl 50 mM",42.0%
same,"Solubility of Lispro, % remaining of the original concentration","0.2% methylparaben + […] m-cresol, pH 6.6, NaCl 80 mM",28.2%
same,"Solubility of Lispro, % remaining of the original concentration","0.2% methylparaben + […] m-cresol, pH 6.6, NaCl 110 mM",24.1%
same,"Solubility of Lispro, % remaining of the original concentration","0.2% methylparaben + […] m-cresol, pH 6.6, NaCl 140 mM",25.9%
same,"Solubility of Lispro, % remaining of the original concentration","0.2% methylparaben + […] m-cresol, pH 6.8, NaCl 50 mM",82.3%
same,"Solubility of Lispro, % remaining of the original concentration","0.2% methylparaben + […] m-cresol, pH 6.8, NaCl 80 mM",62.6%
same,"Solubility of Lispro, % remaining of the original concentration","0.2% methylparaben + […] m-cresol, pH 6.8, NaCl 110 mM",47.8%
same,"Solubility of Lispro, % remaining of the original concentration","0.2% methylparaben + […] m-cresol, pH 6.8, NaCl 140 mM",42.0%
same,"Solubility of Lispro, % remaining of the original concentration","0.2% methylparaben + […] m-cresol, pH 7.0, NaCl 50 mM",95.3%
same,"Solubility of Lispro, % remaining of the original concentration","0.2% methylparaben + […] m-cresol, pH 7.0, NaCl 80 mM",98.1%
same,"Solubility of Lispro, % remaining of the original concentration","0.2% methylparaben + […] m-cresol, pH 7.0, NaCl 110 mM",94.1%
same,"Solubility of Lispro, % remaining of the original concentration","0.2% methylparaben + […] m-cresol, pH 7.0, NaCl 140 mM",65.6%
same,"Solubility of Lispro, % remaining of the original concentration","0.2% methylparaben + […] m-cresol, pH 7.2, NaCl 50 mM",95.7%
same,"Solubility of Lispro, % remaining of the original concentration","0.2% methylparaben + […] m-cresol, pH 7.2, NaCl 80 mM",97.9%
same,"Solubility of Lispro, % remaining of the original concentration","0.2% methylparaben + […] m-cresol, pH 7.2, NaCl 110 mM",99.6%
same,"Solubility of Lispro, % remaining of the original concentration","0.2% methylparaben + […] m-cresol, pH 7.2, NaCl 140 mM",98.0%
same,"Solubility of Lispro, % remaining of the original concentration","0.2% methylparaben + […] m-cresol, pH 7.4, NaCl 50 mM",95.6%
same,"Solubility of Lispro, % remaining of the original concentration","0.2% methylparaben + […] m-cresol, pH 7.4, NaCl 80 mM",98.2%
same,"Solubility of Lispro, % remaining of the original concentration","0.2% methylparaben + […] m-cresol, pH 7.4, NaCl 110 mM",99.9%
same,"Solubility of Lispro, % remaining of the original concentration","0.2% methylparaben + […] m-cresol, pH 7.4, NaCl 140 mM",98.5%
same,"Solubility of Lispro, % remaining of the original concentration","0.2% methylparaben + […] m-cresol, pH 7.6, NaCl 50 mM",95.7%
same,"Solubility of Lispro, % remaining of the original concentration","0.2% methylparaben + […] m-cresol, pH 7.6, NaCl 80 mM",98.3%
same,"Solubility of Lispro, % remaining of the original concentration","0.2% methylparaben + […] m-cresol, pH 7.6, NaCl 110 mM",100.2%
same,"Solubility of Lispro, % remaining of the original concentration","0.2% methylparaben + […] m-cresol, pH 7.6, NaCl 140 mM",98.8%
same,"Solubility of Lispro, % remaining of the original concentration","0.2% phenol + […] m-cresol, pH 6.6, NaCl 50 mM",52.8%
same,"Solubility of Lispro, % remaining of the original concentration","0.2% phenol + […] m-cresol, pH 6.6, NaCl 80 mM",32.8%
same,"Solubility of Lispro, % remaining of the original concentration","0.2% phenol + […] m-cresol, pH 6.6, NaCl 110 mM",26.0%
same,"Solubility of Lispro, % remaining of the original concentration","0.2% phenol + […] m-cresol, pH 6.8, NaCl 50 mM",91.4%
same,"Solubility of Lispro, % remaining of the original concentration","0.2% phenol + […] m-cresol, pH 6.8, NaCl 80 mM",65.1%
same,"Solubility of Lispro, % remaining of the original concentration","0.2% phenol + […] m-cresol, pH 6.8, NaCl 110 mM",44.9%
same,"Solubility of Lispro, % remaining of the original concentration","0.2% phenol + […] m-cresol, pH 6.8, NaCl 140 mM",40.4%
same,"Solubility of Lispro, % remaining of the original concentration","0.2% phenol + […] m-cresol, pH 7.0, NaCl 50 mM",97.4%
same,"Solubility of Lispro, % remaining of the original concentration","0.2% phenol + […] m-cresol, pH 7.0, NaCl 80 mM",95.5%
same,"Solubility of Lispro, % remaining of the original concentration","0.2% phenol + […] m-cresol, pH 7.0, NaCl 110 mM",75.2%
same,"Solubility of Lispro, % remaining of the original concentration","0.2% phenol + […] m-cresol, pH 7.0, NaCl 140 mM",65.3%
same,"Solubility of Lispro, % remaining of the original concentration","0.2% phenol + […] m-cresol, pH 7.2, NaCl 50 mM",97.6%
same,"Solubility of Lispro, % remaining of the original concentration","0.2% phenol + […] m-cresol, pH 7.2, NaCl 80 mM",97.4%
same,"Solubility of Lispro, % remaining of the original concentration","0.2% phenol + […] m-cresol, pH 7.2, NaCl 110 mM",95.2%
same,"Solubility of Lispro, % remaining of the original concentration","0.2% phenol + […] m-cresol, pH 7.2, NaCl 140 mM",90.8%
same,"Solubility of Lispro, % remaining of the original concentration","0.2% phenol + […] m-cresol, pH 7.4, NaCl 50 mM",97.7%
same,"Solubility of Lispro, % remaining of the original concentration","0.2% phenol + […] m-cresol, pH 7.4, NaCl 80 mM",97.6%
same,"Solubility of Lispro, % remaining of the original concentration","0.2% phenol + […] m-cresol, pH 7.4, NaCl 110 mM",97.0%
same,"Solubility of Lispro, % remaining of the original concentration","0.2% phenol + […] m-cresol, pH 7.4, NaCl 140 mM",96.9%
same,"Solubility of Lispro, % remaining of the original concentration","0.2% phenol + […] m-cresol, pH 7.6, NaCl 50 mM",97.5%
same,"Solubility of Lispro, % remaining of the original concentration","0.2% phenol + […] m-cresol, pH 7.6, NaCl 80 mM",97.7%
same,"Solubility of Lispro, % remaining of the original concentration","0.2% phenol + […] m-cresol, pH 7.6, NaCl 110 mM",97.3%
same,"Solubility of Lispro, % remaining of the original concentration","0.2% phenol + […] m-cresol, pH 7.6, NaCl 140 mM",96.8%
same,time insulin Lispro stable (soluble),"2-8° C., pH 7.0, 50 mM NaCl",5 months
same,Solubility,"2-8° C., pH 7.0, after 1 week at 80, 110 or 140 mM NaCl",below 65%
same,time insulin Lispro stable (soluble),"2-8° C., pH 7.6, 140 mM NaCl",2 weeks
same,time insulin Lispro stable (soluble),"2-8° C., pH 7.6, 50 and 80 mM NaCl, […] m-cresol, […] phenol",at least 12 months
same,"Solubility of Lispro, % remaining of the original concentration","[…] phenol + […] m-cresol, pH 6.6, NaCl 50 mM",60.3%
same,"Solubility of Lispro, % remaining of the original concentration","[…] phenol + […] m-cresol, pH 6.6, NaCl 80 mM",43.3%
same,"Solubility of Lispro, % remaining of the original concentration","[…] phenol + […] m-cresol, pH 6.6, NaCl 110 mM",24.2%
same,"Solubility of Lispro, % remaining of the original concentration","[…] phenol + […] m-cresol, pH 6.6, NaCl 140 mM",27.7%
same,"Solubility of Lispro, % remaining of the original concentration","[…] phenol + […] m-cresol, pH 6.8, NaCl 50 mM",93.6%
same,"Solubility of Lispro, % remaining of the original concentration","[…] phenol + […] m-cresol, pH 6.8, NaCl 80 mM",60.8%
same,"Solubility of Lispro, % remaining of the original concentration","[…] phenol + […] m-cresol, pH 6.8, NaCl 110 mM",44.9%
same,"Solubility of Lispro, % remaining of the original concentration","[…] phenol + […] m-cresol, pH 6.8, NaCl 140 mM",35.9%
same,"Solubility of Lispro, % remaining of the original concentration","[…] phenol + […] m-cresol, pH 7.0, NaCl 50 mM",98.7%
same,"Solubility of Lispro, % remaining of the original concentration","[…] phenol + […] m-cresol, pH 7.0, NaCl 80 mM",96.4%
same,"Solubility of Lispro, % remaining of the original concentration","[…] phenol + […] m-cresol, pH 7.0, NaCl 110 mM",77.0%
same,"Solubility of Lispro, % remaining of the original concentration","[…] phenol + […] m-cresol, pH 7.0, NaCl 140 mM",61.2%
same,"Solubility of Lispro, % remaining of the original concentration","[…] phenol + […] m-cresol, pH 7.2, NaCl 50 mM",100.5%
same,"Solubility of Lispro, % remaining of the original concentration","[…] phenol + […] m-cresol, pH 7.2, NaCl 80 mM",99.2%
same,"Solubility of Lispro, % remaining of the original concentration","[…] phenol + […] m-cresol, pH 7.2, NaCl 110 mM",97.3%
same,"Solubility of Lispro, % remaining of the original concentration","[…] phenol + […] m-cresol, pH 7.2, NaCl 140 mM",93.1%
same,"Solubility of Lispro, % remaining of the original concentration","[…] phenol + […] m-cresol, pH 7.4, NaCl 50 mM",100.8%
same,"Solubility of Lispro, % remaining of the original concentration","[…] phenol + […] m-cresol, pH 7.4, NaCl 80 mM",101.8%
same,"Solubility of Lispro, % remaining of the original concentration","[…] phenol + […] m-cresol, pH 7.4, NaCl 110 mM",100.7%
same,"Solubility of Lispro, % remaining of the original concentration","[…] phenol + […] m-cresol, pH 7.4, NaCl 140 mM",98.4%
same,"Solubility of Lispro, % remaining of the original concentration","[…] phenol + […] m-cresol, pH 7.6, NaCl 50 mM",100.9%
same,"Solubility of Lispro, % remaining of the original concentration","[…] phenol + […] m-cresol, pH 7.6, NaCl 80 mM",102.1%
same,"Solubility of Lispro, % remaining of the original concentration","[…] phenol + […] m-cresol, pH 7.6, NaCl 110 mM",101.6%
same,"Solubility of Lispro, % remaining of the original concentration","[…] phenol + […] m-cresol, pH 7.6, NaCl 140 mM",101.3%
